Test results published in patent publication US20210238296A1 (Genmab, published 2021).

Legend:
CD20 = target: T1, CD20 (human, UniProt P11836 1-297); assay: flow cytometry on Wien 133 and Raji cells (FIG. 7)
T1 construct: whole, on cells; cell surface target of IgG1-11B8; also called human CD20
T1 sequence (looked up): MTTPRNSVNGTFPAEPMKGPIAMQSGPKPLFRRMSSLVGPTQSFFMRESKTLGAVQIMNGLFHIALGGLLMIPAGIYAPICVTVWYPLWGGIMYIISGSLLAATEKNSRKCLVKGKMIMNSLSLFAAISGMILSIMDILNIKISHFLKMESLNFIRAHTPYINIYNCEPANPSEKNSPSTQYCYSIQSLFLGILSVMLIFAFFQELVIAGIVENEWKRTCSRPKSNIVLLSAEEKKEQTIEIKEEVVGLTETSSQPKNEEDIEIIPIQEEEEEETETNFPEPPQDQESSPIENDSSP

[1] = target: T2, FcRnECDHis-B2M-BIO (recombinant biotinylated extracellular domain of human FcRn as dimer with … (human, UniProt P55899 24-297; P61769 21-119, biotinylated); assay: FcRn ELISA at pH 6.0
T2 construct: also called FcRnhsECDHis-B2M-BIO
T2 sequence (P55899 other isoform, or with tags, fused parts or gaps, chain 1 of 2): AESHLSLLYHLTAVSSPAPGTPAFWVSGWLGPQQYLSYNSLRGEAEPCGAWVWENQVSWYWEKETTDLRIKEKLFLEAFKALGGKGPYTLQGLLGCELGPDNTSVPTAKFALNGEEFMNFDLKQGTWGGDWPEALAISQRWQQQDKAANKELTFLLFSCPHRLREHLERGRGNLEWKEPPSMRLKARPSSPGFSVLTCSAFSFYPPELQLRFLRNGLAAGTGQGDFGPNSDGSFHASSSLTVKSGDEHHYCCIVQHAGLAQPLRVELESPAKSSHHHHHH
T2 sequence (P61769 21-119, chain 2 of 2): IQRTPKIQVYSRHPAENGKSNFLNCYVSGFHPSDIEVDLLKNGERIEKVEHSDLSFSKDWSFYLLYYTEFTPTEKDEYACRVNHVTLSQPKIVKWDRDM

B1: IgG1-b12 (antibody)
heavy: not shown
light: EIVLTQSPGTLSLSPGERATFSCRSSHSIRSRRVAWYQHKPGQAPRLVIHGVSNRASGISDRFSGSGSGTDFTLTITRVEPEDFALYYCQVYGASSYTFGQGTKLERKRTVAAPSVFIFPPSDEQLKSGTASVVCLLNNFYPREAKVQWKVDNALQSGNSQESVTEQDSKDSTYSLSSTLTLSKADYEKHKVYACEVTHQGLSSPVTKSFNRGEC
notes: HIV gp120-specific negative control with wild type Fc; also called human IgG1 antibody b12
- binding result (CD20): no binding
- binding result [1]: binds
